For series [1], the target named is T1, VAP-1 (Mus musculus, UniProt O70423).
T1 construct: VAP-1 was expressed on endothelial cells lining inflamed atherosclerotic lesions; from tissue; host or cells: living mice (LDLR-/-ApoB100/100, Jackson strain #003000; C57BL/6N controls); aorta, atherosclerotic plaque endothelium, adipocytes
T1 sequence (O70423 1-765): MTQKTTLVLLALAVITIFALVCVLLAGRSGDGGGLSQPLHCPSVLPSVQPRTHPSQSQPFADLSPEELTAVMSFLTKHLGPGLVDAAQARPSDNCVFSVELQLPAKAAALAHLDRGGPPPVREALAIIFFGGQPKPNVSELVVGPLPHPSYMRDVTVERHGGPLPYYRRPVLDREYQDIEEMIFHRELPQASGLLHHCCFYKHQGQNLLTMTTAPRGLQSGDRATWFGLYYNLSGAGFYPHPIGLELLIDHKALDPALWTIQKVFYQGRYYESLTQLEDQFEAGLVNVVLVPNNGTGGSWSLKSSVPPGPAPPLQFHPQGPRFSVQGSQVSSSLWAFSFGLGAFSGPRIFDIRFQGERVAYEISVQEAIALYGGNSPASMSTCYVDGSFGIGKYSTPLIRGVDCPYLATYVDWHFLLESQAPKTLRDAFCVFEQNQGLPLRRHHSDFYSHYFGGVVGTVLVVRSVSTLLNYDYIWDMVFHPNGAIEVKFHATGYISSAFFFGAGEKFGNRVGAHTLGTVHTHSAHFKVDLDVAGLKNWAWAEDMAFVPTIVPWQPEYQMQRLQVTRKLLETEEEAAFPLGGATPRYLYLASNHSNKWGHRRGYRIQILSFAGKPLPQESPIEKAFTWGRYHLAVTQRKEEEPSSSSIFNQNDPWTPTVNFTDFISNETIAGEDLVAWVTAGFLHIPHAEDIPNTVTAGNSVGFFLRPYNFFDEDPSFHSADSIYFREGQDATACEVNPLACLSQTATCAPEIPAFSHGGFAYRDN
Put plainly: 4-week VAP-1 inhibitor treatment: plaque macrophages and intima-to-media ratio. Format: in vivo, mouse (LDLR−/−ApoB100/100). As to the method:
(§1) The second phase examined the role of VAP-1 in atherosclerotic plaques. Twenty-five LDLR^−/−ApoB^100/100 mice were treated with a VAP-1 inhibitor (LJP1586, Z-3-fluoro-2-(4-methoxybenzyl)allylamine hydrochloride; a kind gift from M. Linnik, La Jolla Pharmaceuticals, San Diego, CA, USA), or with saline. At the age of 2 months, mice were shifted to a high-fat diet for 2 months prior to the start of 4-week treatment, during which they were on normal chow. All mice were housed in an animal facility under standard conditions (12 h light/dark cycle) and allowed access to food and water ad libitum.
(§2) During the 4 week treatment period, LDLR^−/−ApoB^100/100 mice received thrice-weekly intraperitoneal (i.p.) injections of a small molecular VAP-1 inhibitor, LJP1586 (Z-3-fluoro-2-(4-methoxybenzyl)allylamine hydrochloride; 0.5 mg/mL diluted in PBS; a kind gift from M. Linnik, La Jolla Pharmaceuticals, San Diego, CA, USA) at a dose of 5 mg/kg. Mice injected with the physiological saline alone (200 μL) served as negative controls. After treatment, all mice were sacrificed and the hearts were collected, formalin-fixed, and paraffin-embedded. Tissues were then cut transversely into 5 μm sections at the level of the coronary ostia. The areas of intima and media were outlined in sections stained with Movat’s pentachrome, and the intima-to-media ratio for each mouse was determined with ImageJ as described previously. Adjacent sections were stained with an anti-mouse Mac-3 antibody to detect activated macrophages in the intima as described above. Sections of aortic ostium were used to determine the area of plaque occupied by macrophages in each mouse because the ostium is easily located due to the presence of valves; it is therefore the most reliable place to compare plaque deposition in individual mice.

Series [2] can be described thus: Body weight and plasma lipids after 4-week VAP-1 inhibitor treatment. The format is in vivo, mouse (LDLR−/−ApoB100/100). The note with it: mean ± SD. The method, then:
as §1
as §2, with “Sections of aortic ostium were used to determine the area of plaque occupied by macrophages in each mouse because the ostium is easily located due to the presence of valves; it is therefore the most reliable place to compare plaque deposition in individual mice.” left out
Total cholesterol (CHOD-PAP 1489232 kit; Roche Diagnostics GmbH, Mannheim, Germany), choline-containing phospholipids (990–54009; Wako Chemicals GmbH, Neuss, Germany and/or Diagnostic Systems, Holzheim, Germany), and triglycerides (GPO-PAP 1488872 kit; Roche Diagnostics GmbH) were measured using fully enzymatic methods.

Series [3] relates to VAP-1. The note with it: mouse VAP-1; cited from earlier work. The source says:
(§3) The adhesive function of VAP-1 can be inhibited by […]. Inhibiting VAP-1 reduces the migration of lymphocytes, granulocytes, and monocytes into inflamed tissues; it also reduces pathological angiogenesis in many animal models by abrogating monocyte/macrophage infiltration.

For series [4], the system named is broad panel of receptors and enzymes, including monoamine oxidases A and B. The note with it: cited from earlier work.
From the text: as §3

Series [5] has as its target T1, VAP-1. Details: species or system mouse (LDLR−/−ApoB100/100; C57BL/6N). The note with it: in vivo. As to the method: Mice (n = 5) then received an injection of [^68Ga]DOTA-Siglec-9 (22 ± 9 MBq) and were then subjected to subsequent ex vivo biodistribution and autoradiography analyses.
The distribution of [^68Ga]DOTA-Siglec-9 in the aorta was examined in more detail using autoradiography, as described previously. Briefly, after gamma counting, excised aortas were frozen in isopentane, and sequential longitudinal cryosections (20 and 8 μm) were cut using a cryomicrotome at −15 °C. Sections were then thaw-mounted onto microscope slides. […]
The 20 μm sections were stained with hematoxylin and eosin and scanned with a Pannoramic 250 Flash slide scanner (3DHISTECH Ltd.), and morphology was examined using Pannoramic Viewer 1.15 software (3DHISTECH Ltd.). After carefully superimposing the autoradiographs and hematoxylin-eosin staining images, the concentration of ^68Ga-radioactivity was measured in the following ROI: 1) plaques (excluding media); 2) normal vessel wall (no lesion formation); and 3) adventitia (mainly adipose tissue around the aorta). The results were expressed as count densities (photostimulated luminescence per square millimeter; PSL/mm^2) using Tina 2.1 software (Raytest Isotopemessgeräte GmbH, Straubenhardt, Germany). […] In total, […] (417 in plaques, 478 in normal vessel walls, and 347 in adventitia) were analyzed in 27 atherosclerotic and 20 control mice. […]

Series [6] relates to T2, VAP-1.
T2 construct: VAP-1 was expressed on endothelial cells lining inflamed atherosclerotic lesions; from tissue; host or cells: living mice (LDLR-/-ApoB100/100, Jackson strain #003000; C57BL/6N controls); aorta, atherosclerotic plaque endothelium, adipocytes
The series can be described thus: in vivo. Also noted: species or system mouse (LDLR−/−ApoB100/100; C57BL/6N). The following applies: total radioactivity. The method, then:
(§4) Mice (LDLR^−/−ApoB^100/100, n = 22; C57BL/6N, n = 20) under isoflurane anesthesia were i.v. injected with [^68Ga]DOTA-Siglec-9 (19 ± 5 MBq). […] The thoracic aorta was excised and rinsed in saline to remove blood. Aorta, blood, heart, and femoral muscle were weighed, and radioactivity was measured in a gamma counter (Triathler 3″, Hidex, Turku, Finland). Hearts were preserved in formalin for further characterization of plaques in the aortic root. The ex vivo biodistribution results were expressed as a percentage of the injected radioactivity dose per gram of tissue (%IA/g). The radioactivity remaining in the tail was compensated for. […] Mice (n = 5) then received an injection of [^68Ga]DOTA-Siglec-9 (22 ± 9 MBq) and were then subjected to subsequent ex vivo biodistribution and autoradiography analyses.

Series [7] has as its target T1, VAP-1. Put plainly: in vivo. Also noted: species or system mouse (LDLR−/−ApoB100/100; C57BL/6N). The following applies: mouse. As to the method:
as §4

Bridge positions count the residues as written; N and C are the ends. Peptide text beside a SMILES is read from it. * marks the point of attachment. DOTA = O=C(O)CN1CCN(CC(=O)O)CCN(CC(=O)*)CCN(CC(=O)O)CC1; AEEA = NCCOCCOCC(=O)O

Broadly, the IC50 is the point on the concentration scale where inhibition reaches its midpoint. What is called tissue uptake is the share of the injected amount in each gram of the tissue.

As to `COc1ccc(C/C(=C/F)CN)cc1.Cl` [LJP1586, Z-3-fluoro-2-(4-methoxybenzyl)allylamine hydrochloride], the “reduction of Mac-3-positive macrophages in atherosclerotic plaques compared with the saline group” value at VAP-1 [1] (LJP1586 5 mg/kg i.p. thrice weekly for 4 weeks, P < 0.0001) was found to be 46%. In addition, the “intima-media ratio (plaque size)” value on VAP-1 [1] (LJP1586 5 mg/kg i.p. thrice weekly for 4 weeks, n = 15, aortic ostium, mean ± SD (saline 1.5 ± 0.6; P = 0.15)) worked out at 1.9 ± 0.8. For the same compound, the “areal percentage of the aortic plaque occupied by Mac-3-positive macrophages” value on VAP-1 [1] (LJP1586 5 mg/kg i.p. thrice weekly for 4 weeks, n = 15, aortic ostium, mean ± SD (saline 15% ± 5.1%)) is on record as 8.2% ± 3.5%. For the same compound, the “effect on plaque size, as determined by the intima-media ratio” value on VAP-1 [1] (LJP1586 for 4 weeks vs saline) is given as “no effect”. The compound also displayed a Body weight in series [2] (LJP1586-treated LDLR−/−ApoB100/100 mice (n = 15), P = 0.065 vs saline) of 28 ± 4.5 g. Also, the “Weight, female” value in series [2] (LJP1586 group, female LDLR−/−ApoB100/100 mice (n = 8)) turned out to be 25 ± 1.9 g. Further, the “Weight, male” value in series [2] (LJP1586 group, male LDLR−/−ApoB100/100 mice (n = 7)) amounted to 33 ± 1.7 g. Moreover, the IC50 in the series on VAP-1 [3] is 4 nM. The “selectivity for VAP-1” value in series [4] is recorded as “has been confirmed”.

As to `CC(C)C[C@@H]1NC(=O)CNC(=O)[C@H](CCCNC(=N)N)NC(=O)[C@H](Cc2c[nH]c3ccccc23)NC(=O)[C@H](CO)NC(=O)[C@H](CC(C)C)NC(=O)[C@H](CO)NC(=O)[C@H](CC(C)C)NC(=O)[C@H](CCCNC(=N)N)NC(=O)[C@H](C)NC(=O)[C@@H](NC(=O)COCCOCCNC(=O)CN2CCN(CC(=O)O)CCN(CC(=O)O)CCN(CC(=O)O)CC2)CSSC[C@@H](C(=O)N2CCC[C@H]2C(=O)N[C@@H](CO)C(=O)N[C@@H](CCCCN)C(=O)O)NC(=O)[C@H](CC(C)C)NC(=O)[C@H]([C@@H](C)O)NC1=O` [[^68Ga]DOTA-Siglec-9, metal not drawn] ({DOTA-AEEA}-CARLSLSWRGLTLCPSK-OH; disulfide 1-14), the “Plaque-to-adventitia ratio (autoradiography)” value with VAP-1 [5] is 1.8 ± 0.35 P < 0.0001. In addition, the “Plaque-to-wall ratio (autoradiography)” value with VAP-1 [5] is 2.1 ± 0.43 P < 0.0001. For the same compound, the tissue uptake at 25 min with VAP-1 [6] (C57BL/6N, mouse, iv, uptake by the whole aorta) turned out to be 0.46 ± 0.1 %ID/g; with VAP-1 [6] (LDLR−/−ApoB100/100, mouse, iv, radioactivity concentration in the blood), 3 ± 1.3 %ID/g; in the series with VAP-1 [6] (LDLR−/−ApoB100/100, mouse, iv, uptake by the whole aorta), 0.83 ± 0.33 %ID/g; in the series on VAP-1 [6] (LDLR−/−ApoB100/100, mouse, radioactivity concentration in the blood with competition) it was 2.6 ± 0.9 %ID/g; in the series on VAP-1 [6] (LDLR−/−ApoB100/100, mouse, uptake by the whole aorta with competition), 0.48 ± 0.066 %ID/g. Further, the “aorta-to-blood ratio on prolonging the accumulation time-point to 90 min” value with VAP-1 [7] is “did not improve”. Moreover, in the series with VAP-1 [7], the aorta-to-muscle ratio amounted to 1.7 ± 0.59. Further, the “aorta-to-muscle ratio with competition” value with VAP-1 [7] is listed as 1.1 ± 0.38.

These data come from paper PMC5059718, “Leukocyte trafficking-associated vascular adhesion protein 1 is expressed and functionally active in atherosclerotic plaques” (Scientific Reports, 2016).
